Data taken from patent publication US20220242958A1 (published 2022).

T1: recombinant IL-3Rα ectodomain (UniProt P26951 19-305, limits assumed)
T1 construct: extracellular domain; also called IL-3Ra ectodomain; recombinant IL-3Ra
T1 sequence (looked up): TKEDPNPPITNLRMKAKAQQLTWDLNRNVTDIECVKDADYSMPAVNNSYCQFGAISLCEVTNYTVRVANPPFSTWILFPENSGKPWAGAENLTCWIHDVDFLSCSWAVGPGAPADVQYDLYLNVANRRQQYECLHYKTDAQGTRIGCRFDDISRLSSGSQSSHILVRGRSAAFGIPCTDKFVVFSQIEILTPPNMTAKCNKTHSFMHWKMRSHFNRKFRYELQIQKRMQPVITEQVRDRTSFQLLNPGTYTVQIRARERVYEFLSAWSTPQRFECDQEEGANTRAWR


Key:
[1] = molecular target: T1, recombinant IL-3Rα ectodomain; test: ELISA, recombinant IL-3Ra
[2] = molecular target: human CXCR4 (on cells, membrane extracts or viral lipoparticles) (human, UniProt P61073 1-352); test: cell-based or functional assay
[3] = molecular target: T2, human CD4, cell-expressed (human, UniProt P01730 26-458); test: FACS, MOLM-13 cells
T2 construct: whole, on cells

human CXCR4 (on cells, membrane extracts or viral lipoparticles), sequence (P61073 whole entry): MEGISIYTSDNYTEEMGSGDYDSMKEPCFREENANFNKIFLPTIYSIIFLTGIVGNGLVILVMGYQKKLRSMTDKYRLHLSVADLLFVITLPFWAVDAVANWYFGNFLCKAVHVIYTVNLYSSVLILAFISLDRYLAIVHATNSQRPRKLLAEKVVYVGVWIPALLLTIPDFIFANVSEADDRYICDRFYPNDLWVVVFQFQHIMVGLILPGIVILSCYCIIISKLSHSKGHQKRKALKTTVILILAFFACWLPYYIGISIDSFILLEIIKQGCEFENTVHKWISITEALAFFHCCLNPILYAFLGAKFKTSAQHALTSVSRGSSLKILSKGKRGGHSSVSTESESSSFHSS

Binder	binding result [1]	Fold inc. vs anti-CXCR4 building block, Jurkat E6-1 [2]	Fold inc. vs anti-CXCR4 building block, MOLM-13 [2]	IC50, CXCL-12 induced chemotaxis, Jurkat E6-1 [2]	IC50, CXCL-12 induced chemotaxis, MOLM-13 [2]	binding result [3]
57A07-281F12 (A0110057A07-35GS-4CXCR281F12(Q108L)) (bispecific antibody, the entry carries a c-myc-His6 tag; also made as Flag3-His6-tagged protein; also called CD123#1-CXCR4#2; BI#10/21) EVQLVESGGGLVQAGGSLRLSCAASGSIFSGNVMGWYRRQAPGKEREWVAAIASGGSIYYRDSVKGRFTISRDNAKNTVYLQMNSLKPEDTAVYYCNSHPPTLPYWGQGTLVTVSSGGGGSGGGGSGGGGSGGGGSGGGGSGGGGSGGGGSEVQLVESGGGLVQAGDSLRLSCAASGRAFSRYAMGWFRQAPGKEREFVAAIGWGPSKTNYADSVKGRFTISRDNAKNTVYLQMNTLKPEDTAVYSCAAKFVNTDSTWSRSEMYTYWGQGTLVTVSSAAAEQKLISEEDLNGAAHHHHHH	binds	–	–	–	–	–
55A01-14D09 (A0110055A01-35GS-4CXCR014D09(Q108L)) (bispecific antibody, the entry carries a c-myc-His6 tag; also made as Flag3-His6-tagged protein; also called CD123#2-CXCR4#1; BI#8/22) EVQLVESGGGSVQAGGSLRLSCTTSGRALNMYVMGWFRQAPGNEREFVAATSSSGGSTSYPDSVKGRFTISRDNAKNTVYLQMNSLKPEDTAAYRCAASPYVSTPTMNILEEYRYWGQGTLVTVSSGGGGSGGGGSGGGGSGGGGSGGGGSGGGGSGGGGSEVQLVESGGGLVQAGGSLRLSCVASGISSSKRNMGWYRQAPGKQRESVATISSGGNKDYTDAVKDRFTISRDTTKNTVYLQMNSLKPEDTAVYYCKIEAGTGWATRRGYTYWGQGTLVTVSSAAAEQKLISEEDLNGAAHHHHHH	binds	0.12 fold	0.03 fold	85 nM	290 nM	–
CD4#8-IL12Rb1#30 (bispecific antibody, also called BI#40; T023200040) EVQLVESGGGSVQPGGSLTLSCGTSGRTFNVMGWFRQAPGKEREFVAAVRWSSTGIYYTQYADSVKSRFTISRDNAKNTVYLEMNSLKPEDTAVYYCAADTYNSNPARWDGYDFRGQGTLVTVSSGGGGSGGGGSGGGGSGGGGSGGGGSGGGGSGGGGSEVQLVESGGGLVQTGGSLRLSCAASGRTPRLVAMGWFRQTPGKEREFVGEIILSKGFTYYADSVKGRFTISRVNAKNTITMYLQMNSLKSEDTAVYYCAGRQNWSGSPARTNEYEYWGQGTLVTVSS	–	–	–	–	–	binds
CD4#8-IL12Rb1#31 (bispecific antibody, also called BI#41; T023200041) EVQLVESGGGSVQPGGSLTLSCGTSGRTFNVMGWFRQAPGKEREFVAAVRWSSTGIYYTQYADSVKSRFTISRDNAKNTVYLEMNSLKPEDTAVYYCAADTYNSNPARWDGYDFRGQGTLVTVSSGGGGSGGGGSGGGGSGGGGSGGGGSGGGGSGGGGSEVQLVESGGGLVQTGGSLRLSCAASGRTPSIIAMGWFRQTPGKEREFVGEIILSKGFTYYADSVKGRFTISRANAKNTITMYLQMNSLKSEDTAVYYCAARQNWSGNPTRTNEYEYWGQGTLVTVSS	–	–	–	–	–	binds
IL23R#20-CD4#8 (bispecific antibody, also called BI#43; T023200043) EVQLVESGGGLVQAGGSLRLSCAASGRTFSSYAMGWFRQAPGKDREFVAAISWIGESTYYADSVKGRFTISRDNAKNTVYLRMNSLKPEDTAVYYCAADLYYTAYVAAADEYDYWGQGTLVTVSSGGGGSGGGGSGGGGSGGGGSGGGGSGGGGSGGGGSEVQLVESGGGSVQPGGSLTLSCGTSGRTFNVMGWFRQAPGKEREFVAAVRWSSTGIYYTQYADSVKSRFTISRDNAKNTVYLEMNSLKPEDTAVYYCAADTYNSNPARWDGYDFRGQGTLVTVSS	–	–	–	–	–	binds
14D09-55A01 (4CXCR014D09(Q108L)-35GS-A0110055A01) (bispecific antibody, the entry carries a c-myc-His6 tag; also made as Flag3-His6-tagged protein; also called CXCR4#1-CD123#2; BI#7/19) EVQLVESGGGLVQAGGSLRLSCVASGISSSKRNMGWYRQAPGKQRESVATISSGGNKDYTDAVKDRFTISRDTTKNTVYLQMNSLKPEDTAVYYCKIEAGTGWATRRGYTYWGQGTLVTVSSGGGGSGGGGSGGGGSGGGGSGGGGSGGGGSGGGGSEVQLVESGGGSVQAGGSLRLSCTTSGRALNMYVMGWFRQAPGNEREFVAATSSSGGSTSYPDSVKGRFTISRDNAKNTVYLQMNSLKPEDTAAYRCAASPYVSTPTMNILEEYRYWGQGTLVTVSSAAAEQKLISEEDLNGAAHHHHHH	binds	0.87 fold	2.39 fold	12 nM	3.6 nM	–
57A07-14D09 (A0110057A07-35GS-4CXCR014D09(Q108L)) (bispecific antibody, the entry carries a c-myc-His6 tag; for the cell assays the construct was recloned and made in Pichia as Flag3-His6-tagged protein; also called CD123#1-CXCR4#1; BI#11/23) EVQLVESGGGLVQAGGSLRLSCAASGSIFSGNVMGWYRRQAPGKEREWVAAIASGGSIYYRDSVKGRFTISRDNAKNTVYLQMNSLKPEDTAVYYCNSHPPTLPYWGQGTLVTVSSGGGGSGGGGSGGGGSGGGGSGGGGSGGGGSGGGGSEVQLVESGGGLVQAGGSLRLSCVASGISSSKRNMGWYRQAPGKQRESVATISSGGNKDYTDAVKDRFTISRDTTKNTVYLQMNSLKPEDTAVYYCKIEAGTGWATRRGYTYWGQGTLVTVSSAAAEQKLISEEDLNGAAHHHHHH	binds	0.05 fold	–	210 nM	–	–
14D09-57A07 (4CXCR014D09(Q108L)-35GS-A0110057A07) (bispecific antibody, the entry carries a c-myc-His6 tag; also made as Flag3-His6-tagged protein; also called CXCR4#1-CD123#1; BI#16/20) EVQLVESGGGLVQAGGSLRLSCVASGISSSKRNMGWYRQAPGKQRESVATISSGGNKDYTDAVKDRFTISRDTTKNTVYLQMNSLKPEDTAVYYCKIEAGTGWATRRGYTYWGQGTLVTVSSGGGGSGGGGSGGGGSGGGGSGGGGSGGGGSGGGGSEVQLVESGGGLVQAGGSLRLSCAASGSIFSGNVMGWYRRQAPGKEREWVAAIASGGSIYYRDSVKGRFTISRDNAKNTVYLQMNSLKPEDTAVYYCNSHPPTLPYWGQGTLVTVSSAAAEQKLISEEDLNGAAHHHHHH	binds	0.69 fold	2.39 fold	15 nM	3.6 nM	–
281F12-57A07 (4CXCR281F12(Q108L)-35GS-A0110057A07) (bispecific antibody, the entry carries a c-myc-His6 tag; also made as Flag3-His6-tagged protein; also called CXCR4#2-CD123#1; BI#4/18) EVQLVESGGGLVQAGDSLRLSCAASGRAFSRYAMGWFRQAPGKEREFVAAIGWGPSKTNYADSVKGRFTISRDNAKNTVYLQMNTLKPEDTAVYSCAAKFVNTDSTWSRSEMYTYWGQGTLVTVSSGGGGSGGGGSGGGGSGGGGSGGGGSGGGGSGGGGSEVQLVESGGGLVQAGGSLRLSCAASGSIFSGNVMGWYRRQAPGKEREWVAAIASGGSIYYRDSVKGRFTISRDNAKNTVYLQMNSLKPEDTAVYYCNSHPPTLPYWGQGTLVTVSSAAAEQKLISEEDLNGAAHHHHHH	binds	2.55 fold	12.6 fold	38 nM	6.83 nM	–
CD4#8-IL23R#19 (bispecific antibody, also called BI#45; T023200045) EVQLVESGGGSVQPGGSLTLSCGTSGRTFNVMGWFRQAPGKEREFVAAVRWSSTGIYYTQYADSVKSRFTISRDNAKNTVYLEMNSLKPEDTAVYYCAADTYNSNPARWDGYDFRGQGTLVTVSSGGGGSGGGGSGGGGSGGGGSGGGGSGGGGSGGGGSEVQLVESGGGLVQPGGSLTLSCVASGRTFSTDVMGWFRQAPGKEREFVAAHRTSGISTVYAASVKGRFTISRDNAKNTVYLGMKSLKPEDTAVYVCAAGSDASGGYDYWGQGTLVTVSS	–	–	–	–	–	binds
CD4#8-IL23R#20 (bispecific antibody, also called BI#44; T023200044) EVQLVESGGGSVQPGGSLTLSCGTSGRTFNVMGWFRQAPGKEREFVAAVRWSSTGIYYTQYADSVKSRFTISRDNAKNTVYLEMNSLKPEDTAVYYCAADTYNSNPARWDGYDFRGQGTLVTVSSGGGGSGGGGSGGGGSGGGGSGGGGSGGGGSGGGGSEVQLVESGGGLVQAGGSLRLSCAASGRTFSSYAMGWFRQAPGKDREFVAAISWIGESTYYADSVKGRFTISRDNAKNTVYLRMNSLKPEDTAVYYCAADLYYTAYVAAADEYDYWGQGTLVTVSS	–	–	–	–	–	binds
55A01-281F12 (A0110055A01-35GS-4CXCR281F12(Q108L)) (bispecific antibody, the entry carries a c-myc-His6 tag; also made as Flag3-His6-tagged protein; also called CD123#2-CXCR4#2; BI#15/24) EVQLVESGGGSVQAGGSLRLSCTTSGRALNMYVMGWFRQAPGNEREFVAATSSSGGSTSYPDSVKGRFTISRDNAKNTVYLQMNSLKPEDTAAYRCAASPYVSTPTMNILEEYRYWGQGTLVTVSSGGGGSGGGGSGGGGSGGGGSGGGGSGGGGSGGGGSEVQLVESGGGLVQAGDSLRLSCAASGRAFSRYAMGWFRQAPGKEREFVAAIGWGPSKTNYADSVKGRFTISRDNAKNTVYLQMNTLKPEDTAVYSCAAKFVNTDSTWSRSEMYTYWGQGTLVTVSSAAAEQKLISEEDLNGAAHHHHHH	binds	–	–	–	–	–
IL12Rb1#30-CD4#8 (bispecific antibody, also called BI#46; T023200046) EVQLVESGGGLVQTGGSLRLSCAASGRTPRLVAMGWFRQTPGKEREFVGEIILSKGFTYYADSVKGRFTISRVNAKNTITMYLQMNSLKSEDTAVYYCAGRQNWSGSPARTNEYEYWGQGTLVTVSSGGGGSGGGGSGGGGSGGGGSGGGGSGGGGSGGGGSEVQLVESGGGSVQPGGSLTLSCGTSGRTFNVMGWFRQAPGKEREFVAAVRWSSTGIYYTQYADSVKSRFTISRDNAKNTVYLEMNSLKPEDTAVYYCAADTYNSNPARWDGYDFRGQGTLVTVSS	–	–	–	–	–	binds
IL12Rb1#31-CD4#8 (bispecific antibody, also called BI#47; T023200047) EVQLVESGGGLVQTGGSLRLSCAASGRTPSIIAMGWFRQTPGKEREFVGEIILSKGFTYYADSVKGRFTISRANAKNTITMYLQMNSLKSEDTAVYYCAARQNWSGNPTRTNEYEYWGQGTLVTVSSGGGGSGGGGSGGGGSGGGGSGGGGSGGGGSGGGGSEVQLVESGGGSVQPGGSLTLSCGTSGRTFNVMGWFRQAPGKEREFVAAVRWSSTGIYYTQYADSVKSRFTISRDNAKNTVYLEMNSLKPEDTAVYYCAADTYNSNPARWDGYDFRGQGTLVTVSS	–	–	–	–	–	binds
281F12-55A01 (4CXCR281F12(Q108L)-35GS-A0110055A01) (bispecific antibody, the entry carries a c-myc-His6 tag; also made as Flag3-His6-tagged protein; also called CXCR4#2-CD123#2; BI#3/17) EVQLVESGGGLVQAGDSLRLSCAASGRAFSRYAMGWFRQAPGKEREFVAAIGWGPSKTNYADSVKGRFTISRDNAKNTVYLQMNTLKPEDTAVYSCAAKFVNTDSTWSRSEMYTYWGQGTLVTVSSGGGGSGGGGSGGGGSGGGGSGGGGSGGGGSGGGGSEVQLVESGGGSVQAGGSLRLSCTTSGRALNMYVMGWFRQAPGNEREFVAATSSSGGSTSYPDSVKGRFTISRDNAKNTVYLQMNSLKPEDTAAYRCAASPYVSTPTMNILEEYRYWGQGTLVTVSSAAAEQKLISEEDLNGAAHHHHHH	binds	1.13 fold	10.9 fold	86 nM	7.85 nM	–
